# Experimental data: patent publication US20230381281A1, “PHARMACEUTICAL COMPOSITION COMPRISING GLUCAGON/GLP-1/GIP TRIPLE AGONIST OR LONG-ACTING CONJUGATE THEREOF FOR PREVENTING OR TREATING LUPUS-RELATED DISEASES” (HANMI PHARM. CO., LTD., priority 2020, published 2023)
# Bridge positions count the residues as written; N and C are the ends. Square brackets hold non-standard residues; d marks the D form. Ends that are not written are not given here. * marks the point of attachment. Acetyl(2-(4-imidazolyl)) = O=C(Cc1c[nH]cn1)*; Aib = CC(C)(N)C(=O)O
# Biological target: human GCG receptor (human, UniProt P47871 26-477)
# Sequence (P47871 26-477): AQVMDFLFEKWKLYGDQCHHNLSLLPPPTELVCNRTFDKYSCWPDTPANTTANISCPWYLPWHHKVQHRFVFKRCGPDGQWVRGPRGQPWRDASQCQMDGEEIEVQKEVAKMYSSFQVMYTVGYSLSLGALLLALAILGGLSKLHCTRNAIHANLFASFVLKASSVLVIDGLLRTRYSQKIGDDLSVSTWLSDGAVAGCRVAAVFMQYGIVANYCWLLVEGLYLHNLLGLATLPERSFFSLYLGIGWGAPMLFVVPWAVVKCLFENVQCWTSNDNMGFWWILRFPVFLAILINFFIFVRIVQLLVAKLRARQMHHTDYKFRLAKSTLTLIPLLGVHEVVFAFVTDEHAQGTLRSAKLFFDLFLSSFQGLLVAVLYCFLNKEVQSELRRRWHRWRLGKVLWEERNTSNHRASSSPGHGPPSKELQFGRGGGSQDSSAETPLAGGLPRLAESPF
# Assay: cell-based or functional assay
row,Binder,In vitro activity compared to native peptide (%) vs Glucagon [%]
1,H[Aib]QGTFTSDVSSYLDGQAAKEFIAWLVKGC [Triple agonist of SEQ ID NO: 1],< 0.1
2,H[Aib]QGTFTSDKSKYLDECAAQDFVQWLLDGGPSSGAPPPS [Triple agonist of SEQ ID NO: 41],< 0.1
3,Y[Aib]QGTFTSDYSKYLDEKRAKEFVQWLLDHHCSSGQPPPS (bridge 16-20) [Triple agonist of SEQ ID NO: 43],88.4
4,H[Aib]QGTFTSDYSKYLDEKRQKEFVNWLLAQKC (bridge 16-20) [Triple agonist of SEQ ID NO: 34],0.92
5,H[Aib]QGTFTSDYSKYLDGQHAQCFVAWLLAGGGPSSGAPPPS [Triple agonist of SEQ ID NO: 39],0.53
6,H[Aib]QGTFTSDYSKYLDECRQKEFVQWLLNGGPSSGAPPPSG (bridge 16-20) [Triple agonist of SEQ ID NO: 37],6.21
7,H[Aib]QGTFTSDVSSYLLGQQQKEFIAWLVKGC [Triple agonist of SEQ ID NO: 4],< 0.1
8,H[Aib]QGTFTSDKSKYLDERACQDFVQWLLDGGPSSGAPPPS [Triple agonist of SEQ ID NO: 40],< 0.1
9,H[Aib]QGTFTSDYSKYLCEKRQKEFVQWLLNGGPSSGAPPPSG (bridge 16-20) [Triple agonist of SEQ ID NO: 36],0.39
10,H[Aib]QGTFTSDYSIAMDEIHQKDFVNWLLNTKC (bridge 16-20) [Triple agonist of SEQ ID NO: 35],< 0.1
11,Y[Aib]QGTFTSDYSKYLDEKRAKEFVQWLLDHHPSSGQPPPSC (bridge 16-20) [Triple agonist of SEQ ID NO: 42],206

# Biological target: T1, human GIP receptor (human, UniProt P48546 22-466)
# T1 sequence (looked up): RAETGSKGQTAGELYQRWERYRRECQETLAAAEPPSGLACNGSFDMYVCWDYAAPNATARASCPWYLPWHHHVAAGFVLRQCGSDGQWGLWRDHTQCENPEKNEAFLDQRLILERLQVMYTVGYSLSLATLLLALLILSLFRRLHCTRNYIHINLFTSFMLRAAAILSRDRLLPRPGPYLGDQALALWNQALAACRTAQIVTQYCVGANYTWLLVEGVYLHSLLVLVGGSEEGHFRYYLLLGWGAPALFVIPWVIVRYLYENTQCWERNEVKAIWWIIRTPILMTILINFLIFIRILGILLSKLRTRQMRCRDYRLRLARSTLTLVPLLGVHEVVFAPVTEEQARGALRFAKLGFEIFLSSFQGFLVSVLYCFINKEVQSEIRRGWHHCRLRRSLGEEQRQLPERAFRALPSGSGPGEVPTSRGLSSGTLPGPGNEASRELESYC
# Assay: cell-based or functional assay
row,Binder,In vitro activity compared to native peptide (%) vs GIP [%]
1,H[Aib]QGTFTSDVSSYLDGQAAKEFIAWLVKGC [Triple agonist of SEQ ID NO: 1],< 0.1
2,H[Aib]QGTFTSDKSKYLDECAAQDFVQWLLDGGPSSGAPPPS [Triple agonist of SEQ ID NO: 41],< 0.1
3,Y[Aib]QGTFTSDYSKYLDEKRAKEFVQWLLDHHCSSGQPPPS (bridge 16-20) [Triple agonist of SEQ ID NO: 43],3.7
4,H[Aib]QGTFTSDYSKYLDEKRQKEFVNWLLAQKC (bridge 16-20) [Triple agonist of SEQ ID NO: 34],0.6
5,H[Aib]QGTFTSDYSKYLDGQHAQCFVAWLLAGGGPSSGAPPPS [Triple agonist of SEQ ID NO: 39],< 0.1
6,H[Aib]QGTFTSDYSKYLDECRQKEFVQWLLNGGPSSGAPPPSG (bridge 16-20) [Triple agonist of SEQ ID NO: 37],2.2
7,H[Aib]QGTFTSDVSSYLLGQQQKEFIAWLVKGC [Triple agonist of SEQ ID NO: 4],< 0.1
8,H[Aib]QGTFTSDKSKYLDERACQDFVQWLLDGGPSSGAPPPS [Triple agonist of SEQ ID NO: 40],< 0.1
9,H[Aib]QGTFTSDYSKYLCEKRQKEFVQWLLNGGPSSGAPPPSG (bridge 16-20) [Triple agonist of SEQ ID NO: 36],0.2
10,H[Aib]QGTFTSDYSIAMDEIHQKDFVNWLLNTKC (bridge 16-20) [Triple agonist of SEQ ID NO: 35],1.3
11,Y[Aib]QGTFTSDYSKYLDEKRAKEFVQWLLDHHPSSGQPPPSC (bridge 16-20) [Triple agonist of SEQ ID NO: 42],7.8

# Biological target: human GLP-1 receptor (human, UniProt P43220 24-463)
# Assay: cell-based or functional assay
row,Binder,In vitro activity compared to native peptide (%) vs GLP-1 [%]
1,H[Aib]QGTFTSDVSSYLDGQAAKEFIAWLVKGC [Triple agonist of SEQ ID NO: 1],3.2
2,H[Aib]QGTFTSDKSKYLDECAAQDFVQWLLDGGPSSGAPPPS [Triple agonist of SEQ ID NO: 41],34.3
3,Y[Aib]QGTFTSDYSKYLDEKRAKEFVQWLLDHHCSSGQPPPS (bridge 16-20) [Triple agonist of SEQ ID NO: 43],12.6
4,H[Aib]QGTFTSDYSKYLDEKRQKEFVNWLLAQKC (bridge 16-20) [Triple agonist of SEQ ID NO: 34],19.1
5,H[Aib]QGTFTSDYSKYLDGQHAQCFVAWLLAGGGPSSGAPPPS [Triple agonist of SEQ ID NO: 39],13.9
6,H[Aib]QGTFTSDYSKYLDECRQKEFVQWLLNGGPSSGAPPPSG (bridge 16-20) [Triple agonist of SEQ ID NO: 37],236
7,H[Aib]QGTFTSDVSSYLLGQQQKEFIAWLVKGC [Triple agonist of SEQ ID NO: 4],8.5
8,H[Aib]QGTFTSDKSKYLDERACQDFVQWLLDGGPSSGAPPPS [Triple agonist of SEQ ID NO: 40],75.2
9,H[Aib]QGTFTSDYSKYLCEKRQKEFVQWLLNGGPSSGAPPPSG (bridge 16-20) [Triple agonist of SEQ ID NO: 36],37.4
10,H[Aib]QGTFTSDYSIAMDEIHQKDFVNWLLNTKC (bridge 16-20) [Triple agonist of SEQ ID NO: 35],7.5
11,{Acetyl(2-(4-imidazolyl))}-[Aib]QGTFTSDKSSYLDERAAQDFVQWLLDGGPSSGAPPPSS [Triple agonist of SEQ ID NO: 38],2.3
12,Y[Aib]QGTFTSDYSKYLDEKRAKEFVQWLLDHHPSSGQPPPSC (bridge 16-20) [Triple agonist of SEQ ID NO: 42],33.9
